The values that follow come from US9212210B2, “Akt activity specifically inhibiting polypeptide” (Japan Science and Technology Agency, priority 2003, dated 2015).

The target in one data set is Akt kinase (Homo sapiens, UniProt P31749). Put plainly: In vitro kinase assay of TCL1-induced Akt activation. The data set is classed as biochemical. Particulars: for Akt kinase activity: dose escalation. How it is done:
This was predominantly correlated with Akt Ser-473 phosphorylation levels. […] D16G TCL1 was evaluated by Akt kinase activity.

A further data set has as its target Akt2 (Homo sapiens, UniProt P31751). Put plainly: Yeast two-hybrid screening, β-Gal lifting assay and quantitative liquid β-Gal assay. The data set is classed as cell-based. The following applies: yeast Y190 cells; for binding to Akt in β-Gal lifting assay and quantitative liquid β-Gal assay: site-directed TCL1 mutants. Further details: expressed in transfected cells; host or cells: yeast Y190 cells (Clontech), lithium acetate method; key to β-Gal lifting assay category of interaction with Akt2: 3 h-positive [++]; 8 h-positive [+]; 24 h-negative [−]. How it is done: Y190 cells (Clontech), by using lithium acetate method; and human Akt2 (Akt2/PAS2-1) and TCL1 random library, in accordance with the previous report (Mol. Cell 6:395-407; Proc. Natl. Acad. Sci. USA 94:11534-11539); were expressed in yeast. In the presence of 3-amino-1,2,4-triazole (SIGMA), around […] clones from cDNA library were screened. β-galactosidase (β-Gal) activity in His+ colony was measured by using filter-lift assay. Yeast clones were classified into clone categories: 3 h-positive [++], 8 h-positive [+], and 24 h-negative [−] by the intensity of β-Gal. Ten clones were selected from the each category for sequencing of the nucleotide.
Y190 cells (Clontech) were expressed in yeast together with TCL1 of wild-type, D16G, K30M, Q46R, 174V, or M106V by using Akt2/PAS2-1, with the use of pGAD424 (Clontech) vector. TCL1 mutant was produced by using PCR-based site-directed mutagenesis and/or Quikchange kit (Stratagene). Liquid β-Gal assay was performed for quantitative determination of binding intensity by using ONPG (O-nitrophenyl-β-D-galactoppyranoside; Sigma) (Mol. Cell 6:395-407). The indicated values were determined by western blotting analysis (GAL4 activation domain antibody [Ab]: Clontech), and normalized by expressing transformant in each yeast.
Next, a yeast two-hybrid screening was performed to examine the interaction of each clone with Akt2. Yeast clones were classified into three categories based on the blue-color intensity expressed in β-Gal lifting assay (β-Gal positive [++] at 3 h, β-Gal positive [+] at 8 h, and negative [−]). Nucleotide sequences of the 10 clones in each category were determined.

A further data set addresses T1, AKT kinase (unactivated) (Homo sapiens, UniProt P31749).
T1 construct: purchased Upstate Biotechnology #14-279
Put plainly: Lipid-protein pull down assay with PIP Beads (PI (3,4,5) P3). The class given is binding. The following applies: 1-400 μM peptide, 50 ng AKT kinase, 2 hours at 4° C., western blotting. How it is done: Lipid-protein pull down assay was performed for 10/24 peptide of TCL1.
Lipid-protein pull down assay was performed by using PIP Beads (PI (3,4,5) P3 Echelon Bioscience Incorporated). 10/24 NH2-AVTDHPDRLWAWEKF-COOH (SEQ ID NO: 1), and βC NH2-EKQHAWLPLTIE-COOH (SEQ ID NO: 22) as a control, were used. After treatment for 2 hours at 4° C. by using 50 ng of AKT kinase (unactivated, Upstate Biotechnology, #14-279), 25 μl of PIP Beads (PI (3,4,5) P3 Echelon Bioscience Incorporated) was added, then washed with fluid containing (10 mM Hepes, pH7.4, 0.25% NP-40, 140 mM NaCl), and western blotting was performed by using Akt antibody (Cell Signaling) (FIG. 8). […] Thus, this is considered to be the inhibition mechanism for Akt activation.
Background: Immunoblotting shows a protein as a band on a membrane.

Sequence of Akt2 (P31751 whole entry): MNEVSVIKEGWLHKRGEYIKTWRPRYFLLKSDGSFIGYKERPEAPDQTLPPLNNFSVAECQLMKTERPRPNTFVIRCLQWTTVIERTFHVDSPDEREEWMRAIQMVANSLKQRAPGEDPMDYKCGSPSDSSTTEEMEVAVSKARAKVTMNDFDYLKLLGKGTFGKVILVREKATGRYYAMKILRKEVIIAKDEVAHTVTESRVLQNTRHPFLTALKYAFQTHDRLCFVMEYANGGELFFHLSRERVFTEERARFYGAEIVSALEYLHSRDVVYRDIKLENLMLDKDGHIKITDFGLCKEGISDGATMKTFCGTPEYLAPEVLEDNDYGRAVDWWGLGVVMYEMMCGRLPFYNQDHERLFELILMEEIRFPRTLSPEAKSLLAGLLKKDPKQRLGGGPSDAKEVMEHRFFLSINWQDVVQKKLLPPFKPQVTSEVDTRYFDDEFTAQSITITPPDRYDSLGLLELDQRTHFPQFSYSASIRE
Sequence of Akt kinase (P31749 whole entry): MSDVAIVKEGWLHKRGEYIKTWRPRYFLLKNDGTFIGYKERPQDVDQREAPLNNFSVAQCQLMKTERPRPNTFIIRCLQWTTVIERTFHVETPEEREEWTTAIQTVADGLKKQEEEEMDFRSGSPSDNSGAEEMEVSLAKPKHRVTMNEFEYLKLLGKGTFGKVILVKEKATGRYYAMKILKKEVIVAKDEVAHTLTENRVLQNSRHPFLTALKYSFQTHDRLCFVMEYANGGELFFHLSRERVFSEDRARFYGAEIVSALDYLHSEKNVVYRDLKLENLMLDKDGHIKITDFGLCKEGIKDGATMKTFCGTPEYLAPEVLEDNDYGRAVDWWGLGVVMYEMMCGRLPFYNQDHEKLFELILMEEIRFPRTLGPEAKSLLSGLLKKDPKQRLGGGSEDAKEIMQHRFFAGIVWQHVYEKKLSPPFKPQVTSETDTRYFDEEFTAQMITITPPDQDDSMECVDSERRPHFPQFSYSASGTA
T1 sequence (P31749 whole entry): as above

As to “D16G TCL1: amino acid-substituted mutant form of TCL1 (D16G)”, in the data set with Akt kinase, the “GSK-3α phosphorylation and Akt Ser-473 phosphorylation” value was “did not affect”; the Akt kinase activity result is on record as “did not affect the Akt kinase activity”. Moreover, the “binding to Akt in β-Gal lifting assay and quantitative liquid β-Gal assay” value with Akt2 is recorded as “dramatic decrease”.
Take “I74V: amino acid-substituted mutant form of TCL1 (I74V)”: the “binding to Akt in β-Gal lifting assay and quantitative liquid β-Gal assay” value with Akt2 is recorded as “dramatic decrease”.
Take “NH2-EKQHAWLPLTIE-COOH (H-EKQHAWLPLTIE-OH; listed as Homo sapiens) [βC, reference compound]”: the “binding of PIP Beads (PI (3,4,5) P3) to AKT” value with AKT kinase (unactivated) is reported as “did not inhibit at all”.
Take “Wild-type TCL1: human TCL1 protooncogene protein, co-activator of Akt”: the Akt kinase activity entry with Akt kinase is recorded as “increase in Akt kinase activity”. Moreover, the “β-Gal lifting assay category of interaction with Akt2” value with Akt2 (blue-color intensity) was “++”.
